The values below come from paper PMC6983393.

The target in this assay is K. lactis 80S ribosome (40S and 60S subunits) (K. lactis). The assay can be described thus: co-sedimentation; 30 pmol eIF5B, 15 pmol K. lactis 80S ribosomes, 0.1 mM GDPNP in 30 uL of 20 mM Hepes pH 7.4, 50 mM KCl, 2 mM DTT, 2.5 mM Mg-acetate, 30 C for 5 min; pelleted through a 1 M sucrose cushion (80,000 rpm, 3 h, 4 C); pellets on SDS/PAGE, Coomassie, bands quantified and normalised to WT.

Substance “eIF5B-DIII-h12-Loop mutant (K. lactis eIF5B 361-967, residues 835-839 in S. cerevisiae numbering / 800-804 in K. lactis substituted to alanine) (domain or fragment)” gave a fold reduction in ribosomal binding against WT of 2 fold.

Substance “eIF5B-YxA mutant (K. lactis eIF5B 361-967, Tyr837 in S. cerevisiae numbering / Tyr802 in K. lactis substituted to alanine) (domain or fragment)” came in with a fold reduction in ribosomal binding against WT of 2 fold.
